Tests used:
[1] = biological target: T1, IL-6 (UniProt P05231 49-212); test: SPR; IL-6 amine-coupled on CM5; gp80 (gp80V4) injected at 50 nM, 30 μl/min, 180 s, dissociation 360 s; 25 °C, HBS-P+; BIAcore 3000; without VHH6; settings: both partners purified
T1 construct: interleukin-6 (IL-6); Two in-house constructs are named (IL-6 and IL-6S21); IL-6 bought from R&D Systems was used 'for in vitro experiments'; source: E. coli, produced in house, purified

[2] = biological target: T2, IL-6–gp80 complex (IL-6 with gp80V4) (Homo sapiens, UniProt P05231;PDB); test: SPR; His-tagged VHH6 or mutants captured from 1:5 diluted supernatants on a nickel charged NTA chip; equimolar mixture of IL-6 and gp80 (50 nM each) injected for 300 s at 10 μl/min, dissociation 300 s; BIAcore 3000; 25 °C, HBS-P+; settings: one partner purified
T2 construct: interleukin-6 (IL-6), as m2; also called equimolar mixture of IL-6 and gp80

[3] = biological target: T3, gp80-NT647 (Homo sapiens, UniProt P08887, NT647 dye on primary amines of lysine residues (NHS ester)); test: MST; IL-6 or gp80 labelled with NT647, alone (VHH6 titrated up to 20 μM) or mixed with the unlabelled partner (10 nM IL-6NT647 and 20 nM gp80; VHH6 titrated in); Monolith NT.115, red channel; settings: both partners purified
T3 construct: IL-6 receptor gp80 (CD126); also called gp80 labelled with NT647; source: labelled with the Monolith labelling Red NHS kit

[4] = biological target: T4, IL-6-NT647 (UniProt P05231, NT647 dye on primary amines of lysine residues (NHS ester)); test: as above; settings: both partners purified
T4 construct: interleukin-6 (IL-6); also called IL-6 labelled with NT647; source: labelled with the Monolith labelling Red NHS kit

[5] = biological target: T5, IL-6-NT647+gp80 (Homo sapiens, UniProt P05231;P08887, NT647 dye on primary amines of lysine residues (NHS ester)); test: as above; settings: both partners purified
T5 construct: interleukin-6 (IL-6), as m8; gp80, as m5; also called mixture of IL-6-NT647 and gp80; source: mixture of 10 nM IL-6NT647 and 20 nM gp80

[6] = biological target: T6, gp80-NT647+IL-6 (Homo sapiens, UniProt P08887;P05231, NT647 dye on primary amines of lysine residues (NHS ester)); test: as above; settings: both partners purified
T6 construct: gp80, as m9; interleukin-6 (IL-6), as m2; also called mixture of gp80-NT647 and IL-6; source: mixture of labelled gp80 and IL-6

[7] = biological target: T7, gp80 (Homo sapiens, UniProt P08887); test: BLI; VHH6 captured through its His-tag on Ni-NTA tips; FusionIL-6, IL-6, gp80 and IL-6+gp80 in solution; Octet 384 Red; settings: both partners purified
T7 construct: IL-6 receptor gp80 (CD126), soluble; also called CD126; IL-6 specific receptor

[8] = biological target: T8, IL-6–gp80 complex (gp80 construct not stated) (Homo sapiens, UniProt P05231;P08887); test: as above; settings: both partners purified
T8 construct: interleukin-6 (IL-6), as m2; gp80, as m5; also called dimeric complex IL-6–gp80; source: mixture of IL-6 and gp80

[9] = biological target: T9, IL-6 with gp80-hscFc (UniProt P05231;P08887); test: ELISA; IL-6 coated overnight and VHH6 added with gp80-hscFc, or gp80-hscFc coated overnight and VHH6 added with IL-6
T9 construct: interleukin-6 (IL-6), as m2; gp80 of gp80-hscFc, as m4; also called IL-6–gp80 complex (ELISA); source: one partner coated on the plate, the other added together with VHH6

[10] = biological target: T10, gp80-hscFc (UniProt P08887); test: ELISA; IL-6, gp80 or FusionIL-6 coated at 2 μg/mL in carbonate buffer overnight at 4 °C; supernatant from HEK cells or purified VHHs added; anti-llama-HRP or anti-His-HRP; includes the initial screen
T10 construct: IL-6 receptor gp80 (CD126); hscFc is not explained in the text
T10 sequence (P08887 20-365): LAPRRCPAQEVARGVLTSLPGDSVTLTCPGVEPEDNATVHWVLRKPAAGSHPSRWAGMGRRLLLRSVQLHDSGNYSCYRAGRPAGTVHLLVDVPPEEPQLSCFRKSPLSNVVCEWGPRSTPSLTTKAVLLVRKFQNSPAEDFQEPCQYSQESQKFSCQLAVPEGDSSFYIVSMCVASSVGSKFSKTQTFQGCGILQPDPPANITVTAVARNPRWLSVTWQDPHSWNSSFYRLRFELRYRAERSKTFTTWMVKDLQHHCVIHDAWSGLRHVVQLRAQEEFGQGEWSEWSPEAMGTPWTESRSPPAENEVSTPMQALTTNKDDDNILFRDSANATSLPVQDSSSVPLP

T2 sequence (P05231 28-212, one chain of several): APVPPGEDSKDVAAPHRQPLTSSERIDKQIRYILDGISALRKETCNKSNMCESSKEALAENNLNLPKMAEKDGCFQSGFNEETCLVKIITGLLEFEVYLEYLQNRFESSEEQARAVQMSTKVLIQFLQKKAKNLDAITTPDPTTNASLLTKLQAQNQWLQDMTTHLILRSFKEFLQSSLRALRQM
T3 sequence (P08887 20-468): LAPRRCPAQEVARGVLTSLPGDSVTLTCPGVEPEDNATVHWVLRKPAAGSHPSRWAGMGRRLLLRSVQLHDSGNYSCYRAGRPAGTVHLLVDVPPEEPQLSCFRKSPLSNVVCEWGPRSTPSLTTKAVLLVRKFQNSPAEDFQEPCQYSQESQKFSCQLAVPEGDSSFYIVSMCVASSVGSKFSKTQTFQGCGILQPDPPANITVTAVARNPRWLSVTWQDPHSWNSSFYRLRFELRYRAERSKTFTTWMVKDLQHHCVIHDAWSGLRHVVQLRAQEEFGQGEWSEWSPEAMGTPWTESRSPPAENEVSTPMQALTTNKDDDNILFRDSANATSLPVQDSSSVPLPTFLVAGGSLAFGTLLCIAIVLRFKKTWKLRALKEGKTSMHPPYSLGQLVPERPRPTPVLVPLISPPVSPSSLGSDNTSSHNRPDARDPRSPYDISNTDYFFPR
T6 sequence (P08887 20-468, chain 1 of 2): as the sequence (P08887 20-468) above
T6 sequence (P05231 30-212, chain 2 of 2): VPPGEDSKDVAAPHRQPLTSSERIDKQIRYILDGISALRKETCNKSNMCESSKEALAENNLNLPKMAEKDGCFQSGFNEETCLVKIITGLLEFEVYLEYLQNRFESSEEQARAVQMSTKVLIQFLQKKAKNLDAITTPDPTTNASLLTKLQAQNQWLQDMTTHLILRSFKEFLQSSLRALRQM
T5 sequence (P05231 30-212, chain 1 of 2): as the sequence (P05231 30-212, chain 2 of 2) above
T5 sequence (P08887 20-468, chain 2 of 2): as the sequence (P08887 20-468) above
T4 sequence (P05231 30-212): as the sequence (P05231 30-212, chain 2 of 2) above
T9 sequence (P05231 30-212, chain 1 of 2): as the sequence (P05231 30-212, chain 2 of 2) above
T9 sequence (P08887 20-468, chain 2 of 2): as the sequence (P08887 20-468) above

B1: gp80V4 (receptor)
chain: GLAPRRCPAQEVARGAGAGDVPPEEPQLSCFRKSPLSNVVCEWGPRSTPSLTTKAVLLVRKFQNSPAEDFQEPCQYSQESQKFSCQLAVPEGDSSFYIVSMCVASSVGSKFSKTQTFQGAGILQPDPPANITVTAVARNPRWLSVTWQDPHSWNSSFYRLRFELRYRAERSKTFTTWMVKDLQHHAVIHDAWSGLRHVVQLRAQEEFGQGEWSEWSPEAMGTPWTESRSPP
modifications: N-glycosylated, high-mannose (Expi-HEK/CHO with kifunensine) for crystallography and HDX-MS. The limits and engineered changes are not given, so they are taken from the deposited 5FUC entity 2: D1 …
koff [1]: 0.045 s⁻¹

B2: VHH6 Y27A mutant (VHH)
VHH: DVQFVESGGGSVHAGGSLRLNCATSGAIYSTYCMGWFRQAPGKEREGVAHIYTNSGRTYYADSVKGRFTISQDNAKNTVYLQMNSLKPEDTAIYYCAARPSIRCASFSATEYKDWGQGTQVTVSS
notes: source: Expi-HEK cells, small scale transient expression, in supernatant; not shown: His6 (TEV-6His), C-terminal, kept
fold increase of the dissociation rate against VHH6 [2]: 1.9 fold

B3: VHH6 double mutant Asn74Ala/Ser101Ala (VHH)
VHH: DVQFVESGGGSVHAGGSLRLNCATSGYIYSTYCMGWFRQAPGKEREGVAHIYTNSGRTYYADSVKGRFTISQDAAKNTVYLQMNSLKPEDTAIYYCAARPAIRCASFSATEYKDWGQGTQVTVSS
notes: also called double mutant 74/101; source: Expi-HEK cells, small scale transient expression, in supernatant; not shown: His6 (TEV-6His), C-terminal, kept
fold increase of the dissociation rate against VHH6 [2]: 3.8 fold

B4: VHH6 (VHH)
VHH: DVQFVESGGGSVHAGGSLRLNCATSGYIYSTYCMGWFRQAPGKEREGVAHIYTNSGRTYYADSVKGRFTISQDNAKNTVYLQMNSLKPEDTAIYYCAARPSIRCASFSATEYKDWGQGTQVTVSS
notes: camelid single domain antibody; The His tag is named on VHH6 for the Octet and the NTA-chip SPR; also called locking antibody; source: Expi-HEK cells, transiently transfected; in supernatant (SPR on the NTA chip) or purified; not shown: His6 (TEV-6His), C-terminal, kept
binding result [3]: no binding (tested: up to 20 μM VHH6) | binding result [4]: no binding (tested: up to 20 μM VHH6) | binding result [5]: binds | binding result [6]: binds | binding result [7]: no binding | binding result [8]: binds | binding result [9]: binds | binding result [10]: no binding

B5: VHH6 double mutant Ser101Ala/Lys113Ala (VHH)
VHH: DVQFVESGGGSVHAGGSLRLNCATSGYIYSTYCMGWFRQAPGKEREGVAHIYTNSGRTYYADSVKGRFTISQDNAKNTVYLQMNSLKPEDTAIYYCAARPAIRCASFSATEYADWGQGTQVTVSS
notes: also called double mutant 113/101; source: Expi-HEK cells, small scale transient expression, in supernatant; not shown: His6 (TEV-6His), C-terminal, kept
fold increase of the dissociation rate against VHH6 [2]: 4.3 fold

Source: paper PMC5278397, “Discovery of a junctional epitope antibody that stabilizes IL-6 and gp80 protein:protein interaction and modulates its downstream signaling” (Scientific Reports, 2017)
